From doi:10.1101/2022.12.19.520972 (bioRxiv, 2022)

B1: PEX13 FxxxF (350-403) (domain or fragment)
chain: KQQQSFTNPTLTKGATVADSLDEQEAAFESVFVETNKVPVAPDSIGKDGEKQDL
B2: PEX13 C-terminal peptide FxxxF to PEX5 W4 (domain or fragment)
chain: QQQSFTNPTLTKGATVADSLDEQEAAWYDEYVETNKVPVAPDSIGKDGEKQDL
B3: PEX14 NTD (1-104) (domain or fragment)
chain: MASSEQAEQPSQPSSTPGSENVLPREPLIATAVKFLQNSRVRQSPLATRRAFLKKKGLTDEEIDMAFQQSGTAADEPSSLGPATQVVPVQPPHLISQPYSPAGS
B4: PEX13 SH3-CTR (261-403) (domain or fragment)
chain: VTDSINWASGEDDHVVARAEYDFAAVSEEEISFRAGDMLNLALKEQQPKVRGWLLASLDGQTTGLIPANYVKILGKRKGRKTVESSKVSKQQQSFTNPTLTKGATVADSLDEQEAAFESVFVETNKVPVAPDSIGKDGEKQDL

Legend:
[1] = biological target: T1, PEX13 SH3 (261-346) (human, UniProt Q92968 261-346); test: ITC
T1 sequence: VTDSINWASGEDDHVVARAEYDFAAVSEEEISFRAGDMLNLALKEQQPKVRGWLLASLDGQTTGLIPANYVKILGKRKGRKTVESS

[2] = biological target: B3; test: ITC
[3] = biological target: T1, PEX13 SH3 (261-346); test: NMR titration
[4] = biological target: B4; test: NMR titration
[5] = biological target: B4; test: ITC

B1
Kd [1]: 27 µM
Kd [2]: 2.8 µM
stoichiometry N [2]: 1

AEAHPWLSDYDDLTS [PEX5 W7]
binding result [2]: binds

ALSENWAQEFLAAGD [PEX5 W1]
binding result [2]: binds

TRVPPPILPRPSQ [PEX13 PxxP peptide (49-61)]
binding result [3]: binds
binding result [4]: binds

TATDRWYDEYHPEED [PEX5 W4]
Kd [2]: 3.14 µM

B2
Kd [1]: ~6 µM
stoichiometry N [1]: 1

GTSDAWVDQFTRPVN [PEX5 W6]
binding result [2]: binds

VSPARWAEEYLEQSE [PEX5 W3]
binding result [2]: binds

B3
Kd [5]: 5.4 µM

B4
stoichiometry N [2]: 1

YNETDWSQEFISEVT [PEX5 W2]
binding result [2]: binds

AQAEQWAAEFIQQQG [PEX5 W5]
binding result [2]: binds
